From patent US20050119186A1, “Potent peptide inhibitors and methods of use” (priority 2003, published 2005)
Like-named read-outs stand apart in the source and are kept apart here. Positions of bridges follow the written chain, without caps; N, C: chain ends. Residues, ends and D or L forms follow the SMILES beside them. No end group written: not given here.

B1: Table 1 peptide 10, CLLRMRSIC (SEQ ID NO:30) (peptide)
peptide: CLLRMRSIC
modifications: disulfide 1-9
B2: Table 1 peptide 1, CLLRMRSAC (SEQ ID NO:21) (peptide)
peptide: CLLRMRSAC
modifications: disulfide 1-9
B3: Table 1 peptide 14, CLLRMASIC (SEQ ID NO:34) (peptide)
peptide: CLLRMASIC
modifications: disulfide 1-9
B4: Table 7 peptide 2, CASKMRSAC (SEQ ID NO:2) (peptide)
peptide: CASKMRSAC
modifications: disulfide 1-9
B5: Table 1 peptide 5, CLVRMRSAC (SEQ ID NO:25) (peptide)
peptide: CLVRMRSAC
modifications: disulfide 1-9
B6: Table 1 peptide 7, CLLRMKSAC (SEQ ID NO:27) (peptide)
peptide: CLLRMKSAC
modifications: disulfide 1-9
B7: Table 1 peptide 12, CLARMRSIC (SEQ ID NO:32) (peptide)
peptide: CLARMRSIC
modifications: disulfide 1-9
B8: Table 1 peptide 8, CLLRMRSLC (SEQ ID NO:28) (peptide)
peptide: CLLRMRSLC
modifications: disulfide 1-9
B9: Table 1 peptide 15, CLLRMRAIC (SEQ ID NO:35) (peptide)
peptide: CLLRMRAIC
modifications: disulfide 1-9
B10: Table 7 peptide 10, CILKMRSVC (SEQ ID NO:10) (peptide)
peptide: CILKMRSVC
modifications: disulfide 1-9
B11: Table 1 peptide 3, CVLRMRSAC (SEQ ID NO:23) (peptide)
peptide: CVLRMRSAC
modifications: disulfide 1-9
B12: Table 1 peptide 6, CLLKMRSAC (SEQ ID NO:26) (peptide)
peptide: CLLKMRSAC
modifications: disulfide 1-9
B13: Table 1 peptide 9, CLLRMRSVC (SEQ ID NO:29) (peptide)
peptide: CLLRMRSVC
modifications: disulfide 1-9
B14: Table 1 peptide 11, CALRMRSIC (SEQ ID NO:31) (peptide)
peptide: CALRMRSIC
modifications: disulfide 1-9
B15: Table 1 peptide 4, CLIRMRSAC (SEQ ID NO:24) (peptide)
peptide: CLIRMRSAC
modifications: disulfide 1-9
B16: Table 1 peptide 16, CILKMKSAC (SEQ ID NO:36) (peptide)
peptide: CILKMKSAC
modifications: disulfide 1-9

Key:
[1] = biological target: T1, ICAM-1/LFA-1 (Homo sapiens, UniProt P05362); assay: cellular aggregation blocking assay (LFA-1/ICAM-1 dependent cell aggregation); type: cell-based
T1 construct: endogenous in cells
T1 sequence (P05362 28-532): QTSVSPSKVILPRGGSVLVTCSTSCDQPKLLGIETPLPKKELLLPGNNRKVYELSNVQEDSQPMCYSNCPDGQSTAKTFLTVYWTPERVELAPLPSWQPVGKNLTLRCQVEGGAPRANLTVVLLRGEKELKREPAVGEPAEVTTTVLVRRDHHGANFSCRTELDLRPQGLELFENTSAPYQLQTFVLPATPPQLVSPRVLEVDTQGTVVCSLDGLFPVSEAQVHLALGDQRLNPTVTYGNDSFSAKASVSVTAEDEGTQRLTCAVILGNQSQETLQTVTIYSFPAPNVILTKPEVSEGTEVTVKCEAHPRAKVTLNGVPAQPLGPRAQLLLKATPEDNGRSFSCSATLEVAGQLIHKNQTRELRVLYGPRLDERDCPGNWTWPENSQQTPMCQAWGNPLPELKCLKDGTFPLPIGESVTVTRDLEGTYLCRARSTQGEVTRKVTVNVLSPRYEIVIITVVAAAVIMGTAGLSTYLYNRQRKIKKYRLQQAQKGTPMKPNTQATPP
From the text: The inhibitory compound tested was a cyclic peptide containing nine amino acids that bind to ICAM-1, thereby inhibiting LFA-1/ICAM-1 binding. Using alanine replacement and homologous amino acid substitutions, we identified residues strategic to the antagonist activity were identified. A small set of such derived peptides was used as a training set for the inverse-QSAR. The activity or potency of the peptides is associated with an IC50 value, which measures the concentration that leads to half-maximal inhibition of receptor to ligand. Table 1, below, lists the amino acid sequence of sixteen such derived peptides with their IC50 values (given in μM), determined using a cellular aggregation blocking assay (J. Shannon, D. C. Brown, M. Silva, R. S. Larson, A cyclic peptide inhibits LFA-1/ICAM-1 mediated cell aggregation, J. Pept. Res. (2001) 1-14, L. Sillerud, E. Burks, D. C. Brown, R. S. Larson, NMR-derived solution model of potent ICAM-1 inhibitory peptide, J. Pept. 62 (2003) 97-116).
In brief, the aggregation of a cell line dependent on LFA-1 binding to ICAM-1 was used to measure the inhibitory capacity of each peptide. Inhibitory peptides and cells were seeded in flat-bottomed microtiter plates and allowed to aggregate. The number of aggregates and total number of free (single) cells were counted using inverted phase microscopy. The percent aggregation, P, was determined as P=100(1−F/I) (1) where F is the final number of free cells and I is the initial number of free cells. This percent aggregation was then used to calculate the percent inhibition, Pi as follows Pi=100(1−Pip/Pc) (2) where Pip is the percent aggregation with inhibitory peptide and Pc is the percent aggregation in the control experiment. The IC50 values were calculated from a line fit to the percent inhibition data as a function of inhibitory peptide concentration over the range from 10 μM to 1 mM. Each condition was performed in duplicate while each experiment was performed a minimum of three times.

[2] = biological target: T2, intercellular adhesion molecule-1 (ICAM-1) (human, UniProt P05362 28-532); assay: cell-based or functional assay
T2 sequence (P05362 28-532): as above

[3] = biological target: T2, intercellular adhesion molecule-1 …; assay: cell-based or functional assay; remark: listed apart in the source
[4] = Table 1, class by experimental IC50, read-out: Inhibitor strength

Row | Molecule | Experimental IC50 (µM), cellular aggregation blocking assay [2] [µM] | other results
1 | CC[C@H](C)[C@@H]1NC(=O)[C@@H](N)CSSC[C@@H](C(=O)O)NC(=O)[C@H](C)NC(=O)[C@H](CO)NC(=O)[C@H](CCCCN)NC(=O)[C@H](CCSC)NC(=O)[C@H](CCCCN)NC(=O)[C@H](CC(C)C)NC1=O [Peptide 16] (H-CILKMKSAC-OH; disulfide 1-9) |  | IC50 [1, 4]: ≤ 500 µM; IC50 ([1]; strongest inhibitor in the training set, read-out: IC50 value): 40 µM
2 | CC[C@H](C)[C@@H]1NC(=O)[C@H](CC(C)C)NC(=O)[C@@H](N)CSSC[C@@H](C(=O)O)NC(=O)[C@H](C)NC(=O)[C@H](CO)NC(=O)[C@H](CCCNC(=N)N)NC(=O)[C@H](CCSC)NC(=O)[C@H](CCCNC(=N)N)NC1=O [Peptide 4] (H-CLIRMRSAC-OH; disulfide 1-9) |  | IC50 [1, 4]: 500 to 1000 µM; IC50 ([1]; Table 1, peptide 10 μM to 1 mM, inhibition of cell aggregation, read-out: Experimental IC50): 720 µM
3 | B1 | 580 | 
4 | B2 | 480 | 
5 | B3 | > 1000 | 
6 | B4 |  | Actual IC50 value (µm), cellular assays [3]: 23 µM
7 | B5 | > 1000 | 
8 | B6 | 90 | 
9 | B7 | > 1000 | 
10 | B8 | > 1000 | 
11 | B9 | 710 | 
12 | B10 |  | Actual IC50 value (µm), cellular assays [3]: 28 µM
13 | B11 | > 1000 | 
14 | B12 | 105 | 
15 | B13 | 700 | 
16 | B14 | > 1000 | 
17 | B15 | 720 | 
18 | B16 | 40 | 
